Test results as given in patent US20160039904A1, “STABILIZED SINGLE HUMAN CD4 DOMAINS AND FUSION PROTEINS” (priority 2013, published 2016).

Experiments:
Experiment in all cases: cell-based or functional assay
[1] = biological target: HIV-1 Env of isolate CNE20 (HIV-1)
[2] = biological target: HIV-1 Env of isolate CNE46 (HIV-1)
[3] = biological target: HIV-1 Env of isolate CH70 (HIV-1)
[4] = biological target: HIV-1 Env of isolate CNE15 (HIV-1)
[5] = biological target: HIV-1 Env of isolate CNE4 (HIV-1)
[6] = biological target: HIV-1 Env of isolate CNE58 (HIV-1)
[7] = biological target: HIV-1 Env of isolate CNE64 (HIV-1)
[8] = biological target: HIV-1 Env of isolate CNE1 (HIV-1)
[9] = biological target: HIV-1 Env of isolate CNE49 (HIV-1)
[10] = biological target: HIV-1 Env of isolate CNE23 (HIV-1)
[11] = biological target: HIV-1 Env of isolate AE03 (HIV-1)
[12] = biological target: HIV-1 Env of isolate CNE59 (HIV-1)
[13] = biological target: HIV-1 Env of isolate CH117 (HIV-1)
[14] = biological target: HIV-1 Env of isolate CH64 (HIV-1)
[15] = biological target: HIV-1 Env of isolate CNE40 (HIV-1)
[16] = biological target: HIV-1 Env of isolate CH120 (HIV-1)
[17] = biological target: HIV-1 Env of isolate CNE53 (HIV-1)
[18] = biological target: HIV-1 Env of isolate GX2010.36 (HIV-1)
[19] = biological target: HIV-1 Env of isolate CH91 (HIV-1)
[20] = biological target: HIV-1 Env of isolate CNE3 (HIV-1)
[21] = biological target: HIV-1 Env of isolate CNE66 (HIV-1)
[22] = biological target: HIV-1 Env of isolate CNE30 (HIV-1)
[23] = biological target: HIV-1 Env of isolate YN192.31 (HIV-1)
[24] = biological target: HIV-1 Env of isolate CH119 (HIV-1)
[25] = biological target: HIV-1 Env of isolate CNE17 (HIV-1)
[26] = biological target: HIV-1 Env of isolate CH110 (HIV-1)
[27] = biological target: HIV-1 Env of isolate CNE5 (HIV-1)
[28] = biological target: HIV-1 Env of isolate CH114 (HIV-1)
[29] = biological target: HIV-1 Env of isolate CNE65 (HIV-1)
[30] = biological target: HIV-1 Env of isolate CNE55 (HIV-1)
[31] = biological target: HIV-1 Env of isolate AE20 (HIV-1)
[32] = biological target: HIV-1 Env of isolate CNE57 (HIV-1)
[33] = biological target: HIV-1 Env of isolate CNE9 (HIV-1)
[34] = biological target: HIV-1 Env of isolate CNE7 (HIV-1)
[35] = biological target: HIV-1 Env of isolate CNE14 (HIV-1)
[36] = biological target: HIV-1 Env of isolate CNE47 (HIV-1)
[37] = biological target: HIV-1 Env of isolate CNE11 (HIV-1)
[38] = biological target: HIV-1 Env of isolate CNE107 (HIV-1)
[39] = biological target: HIV-1 Env of isolate CNE6 (HIV-1)
[40] = biological target: HIV-1 Env of isolate CNE68 (HIV-1)
[41] = biological target: HIV-1 Env of isolate CNE16 (HIV-1)

## 4Dm2m (Fc fusion)
[1]
  neutralization IC50: 0.05 nM
  neutralization IC90: 5.3 nM
[2]
  neutralization IC50: 0.27 nM
  neutralization IC90: 9.4 nM
[3]
  neutralization IC50: 0.11 nM
  neutralization IC90: 1.2 nM
[4]
  neutralization IC50: 0.29 nM
  neutralization IC90: 2.6 nM
[5]
  neutralization IC50: 0.11 nM
  neutralization IC90: 2.4 nM
[6]
  neutralization IC50: 2.1 nM
  neutralization IC90: > 28 nM
[7]
  neutralization IC50: 0.56 nM
  neutralization IC90: 3.2 nM
[8]
  neutralization IC50: 0.11 nM
  neutralization IC90: 0.61 nM
[9]
  neutralization IC50: 0.05 nM
  neutralization IC90: 0.56 nM
[10]
  neutralization IC50: 0.49 nM
  neutralization IC90: 4.9 nM
[11]
  neutralization IC50: 0.67 nM
  neutralization IC90: 12 nM
[12]
  neutralization IC50: 0.17 nM
  neutralization IC90: 2.7 nM
[13]
  neutralization IC50: 0.33 nM
  neutralization IC90: 15 nM
[14]
  neutralization IC50: 0.17 nM
  neutralization IC90: 1.6 nM
[15]
  neutralization IC50: 0.01 nM
  neutralization IC90: 0.11 nM
[16]
  neutralization IC50: 0.33 nM
  neutralization IC90: 6.6 nM
[17]
  neutralization IC50: 0.24 nM
  neutralization IC90: 5.5 nM
[18]
  neutralization IC50: 0.11 nM
  neutralization IC90: 18 nM
[19]
  neutralization IC50: 0.39 nM
  neutralization IC90: 10 nM
[20]
  neutralization IC50: 0.39 nM
  neutralization IC90: 2.8 nM
[21]
  neutralization IC50: 0.17 nM
  neutralization IC90: 7.7 nM
[22]
  neutralization IC50: 0.07 nM
  neutralization IC90: 0.44 nM
[23]
  neutralization IC50: 0.89 nM
  neutralization IC90: 21 nM
[24]
  neutralization IC50: 0.17 nM
  neutralization IC90: 3.4 nM
[25]
  neutralization IC50: 0.11 nM
  neutralization IC90: 2.4 nM
[26]
  neutralization IC50: 0.11 nM
  neutralization IC90: 0.83 nM
[27]
  neutralization IC50: 0.67 nM
  neutralization IC90: 8.7 nM
[28]
  neutralization IC50: 0.11 nM
  neutralization IC90: 4 nM
[29]
  neutralization IC50: 0.28 nM
  neutralization IC90: 3.3 nM
[30]
  neutralization IC50: 0.45 nM
  neutralization IC90: 10 nM
[31]
  neutralization IC50: 0.72 nM
  neutralization IC90: 5.8 nM
[32]
  neutralization IC50: 1.2 nM
  neutralization IC90: 19 nM
[33]
  neutralization IC50: 0.22 nM
  neutralization IC90: 3.2 nM
[34]
  neutralization IC50: 0.18 nM
  neutralization IC90: 1.8 nM
[35]
  neutralization IC50: 0.17 nM
  neutralization IC90: 2.4 nM
[36]
  neutralization IC50: 0.11 nM
  neutralization IC90: 2.8 nM
[37]
  neutralization IC50: 0.33 nM
  neutralization IC90: 2.6 nM
[38]
  neutralization IC50: 0.52 nM
  neutralization IC90: 18 nM
[39]
  neutralization IC50: 0.33 nM
  neutralization IC90: 2.3 nM
[40]
  neutralization IC50: 0.11 nM
  neutralization IC90: 0.78 nM
[41]
  neutralization IC50: 0.08 nM
  neutralization IC90: 1.2 nM

## C34 (peptide)
[1]
  neutralization IC50: 3.3 nM
  neutralization IC90: 14 nM
[2]
  neutralization IC50: 6.4 nM
  neutralization IC90: 115 nM
[3]
  neutralization IC50: 7.6 nM
  neutralization IC90: 84 nM
[4]
  neutralization IC50: 3.8 nM
  neutralization IC90: 22 nM
[5]
  neutralization IC50: 6.3 nM
  neutralization IC90: 23 nM
[6]
  neutralization IC50: 2 nM
  neutralization IC90: 13 nM
[7]
  neutralization IC50: 5.1 nM
  neutralization IC90: 21 nM
[8]
  neutralization IC50: 0.73 nM
  neutralization IC90: 6.8 nM
[9]
  neutralization IC50: 2.3 nM
  neutralization IC90: 12 nM
[10]
  neutralization IC50: 2.1 nM
  neutralization IC90: 18 nM
[11]
  neutralization IC50: 24 nM
  neutralization IC90: 85 nM
[12]
  neutralization IC50: 3.4 nM
  neutralization IC90: 28 nM
[13]
  neutralization IC50: 0.6 nM
  neutralization IC90: 3.2 nM
[14]
  neutralization IC50: 1.2 nM
  neutralization IC90: 6.7 nM
[15]
  neutralization IC50: 0.77 nM
  neutralization IC90: 7.8 nM
[16]
  neutralization IC50: 4.6 nM
  neutralization IC90: 39 nM
[17]
  neutralization IC50: 2 nM
  neutralization IC90: 23 nM
[18]
  neutralization IC50: 15 nM
  neutralization IC90: 165 nM
[19]
  neutralization IC50: 2.3 nM
  neutralization IC90: 12 nM
[20]
  neutralization IC50: 7.1 nM
  neutralization IC90: 71 nM
[21]
  neutralization IC50: 2.1 nM
  neutralization IC90: 11 nM
[22]
  neutralization IC50: 14 nM
  neutralization IC90: 110 nM
[23]
  neutralization IC50: 27 nM
  neutralization IC90: 225 nM
[24]
  neutralization IC50: 3.3 nM
  neutralization IC90: 20 nM
[25]
  neutralization IC50: 3.2 nM
  neutralization IC90: 82 nM
[26]
  neutralization IC50: 0.78 nM
  neutralization IC90: 6.3 nM
[27]
  neutralization IC50: 5.9 nM
  neutralization IC90: 63 nM
[28]
  neutralization IC50: 5.4 nM
  neutralization IC90: 25 nM
[29]
  neutralization IC50: 3.1 nM
  neutralization IC90: 16 nM
[30]
  neutralization IC50: 7.9 nM
  neutralization IC90: 103 nM
[31]
  neutralization IC50: 7.4 nM
  neutralization IC90: 69 nM
[32]
  neutralization IC50: 2 nM
  neutralization IC90: 14 nM
[33]
  neutralization IC50: 0.87 nM
  neutralization IC90: 5.8 nM
[34]
  neutralization IC50: 6.4 nM
  neutralization IC90: 22 nM
[35]
  neutralization IC50: 3.9 nM
  neutralization IC90: 17 nM
[36]
  neutralization IC50: 1.9 nM
  neutralization IC90: 14 nM
[37]
  neutralization IC50: 4.6 nM
  neutralization IC90: 42 nM
[38]
  neutralization IC50: 2.8 nM
  neutralization IC90: 32 nM
[39]
  neutralization IC50: 1.6 nM
  neutralization IC90: 15 nM
[40]
  neutralization IC50: 2.2 nM
  neutralization IC90: 12 nM
[41]
  neutralization IC50: 11 nM
  neutralization IC90: 51 nM

## T20 (enfuvirtide) (peptide)
[1]
  neutralization IC50: 5.5 nM
  neutralization IC90: 41 nM
[2]
  neutralization IC50: 26 nM
  neutralization IC90: 743 nM
[3]
  neutralization IC50: 65 nM
  neutralization IC90: > 750 nM
[4]
  neutralization IC50: 14 nM
  neutralization IC90: 157 nM
[5]
  neutralization IC50: 1.7 nM
  neutralization IC90: 14 nM
[6]
  neutralization IC50: 54 nM
  neutralization IC90: 745 nM
[7]
  neutralization IC50: 1.9 nM
  neutralization IC90: 16 nM
[8]
  neutralization IC50: 1.6 nM
  neutralization IC90: 17 nM
[9]
  neutralization IC50: 9.1 nM
  neutralization IC90: 236 nM
[10]
  neutralization IC50: 15 nM
  neutralization IC90: 228 nM
[11]
  neutralization IC50: 304 nM
  neutralization IC90: 510 nM
[12]
  neutralization IC50: 1.4 nM
  neutralization IC90: 17 nM
[13]
  neutralization IC50: 2.3 nM
  neutralization IC90: 34 nM
[14]
  neutralization IC50: 3.1 nM
  neutralization IC90: 25 nM
[15]
  neutralization IC50: 4.9 nM
  neutralization IC90: 108 nM
[16]
  neutralization IC50: 11 nM
  neutralization IC90: 443 nM
[17]
  neutralization IC50: 51 nM
  neutralization IC90: 721 nM
[18]
  neutralization IC50: 255 nM
  neutralization IC90: > 750 nM
[19]
  neutralization IC50: 8.6 nM
  neutralization IC90: 310 nM
[20]
  neutralization IC50: 5.6 nM
  neutralization IC90: 38 nM
[21]
  neutralization IC50: 129 nM
  neutralization IC90: 729 nM
[22]
  neutralization IC50: 26 nM
  neutralization IC90: 285 nM
[23]
  neutralization IC50: 42 nM
  neutralization IC90: 336 nM
[24]
  neutralization IC50: 2 nM
  neutralization IC90: 25 nM
[25]
  neutralization IC50: 42 nM
  neutralization IC90: 676 nM
[26]
  neutralization IC50: 4.3 nM
  neutralization IC90: 262 nM
[27]
  neutralization IC50: 2.1 nM
  neutralization IC90: 19 nM
[28]
  neutralization IC50: 102 nM
  neutralization IC90: > 750 nM
[29]
  neutralization IC50: 5.9 nM
  neutralization IC90: 78 nM
[30]
  neutralization IC50: 26 nM
  neutralization IC90: 549 nM
[31]
  neutralization IC50: 212 nM
  neutralization IC90: 572 nM
[32]
  neutralization IC50: 2.5 nM
  neutralization IC90: 24 nM
[33]
  neutralization IC50: 1.7 nM
  neutralization IC90: 14 nM
[34]
  neutralization IC50: 4.3 nM
  neutralization IC90: 58 nM
[35]
  neutralization IC50: 9.7 nM
  neutralization IC90: 305 nM
[36]
  neutralization IC50: 4.9 nM
  neutralization IC90: 42 nM
[37]
  neutralization IC50: 3.5 nM
  neutralization IC90: 36 nM
[38]
  neutralization IC50: 3.8 nM
  neutralization IC90: 45 nM
[39]
  neutralization IC50: 1.4 nM
  neutralization IC90: 15 nM
[40]
  neutralization IC50: 32 nM
  neutralization IC90: 321 nM
[41]
  neutralization IC50: 14 nM
  neutralization IC90: 169 nM
